Results: paper PMC5430633, “Phosphorylation of the mitochondrial autophagy receptor Nix enhances its interaction with LC3 proteins” (Scientific Reports, 2017)
Blank lines part the entries; values can stand above or below the binder they belong to.

Legend:
Conditions in all cases: both partners purified
[1] = biological target: LC3B wild type (for ITC and NMR) (human, UniProt Q9GZQ8 1-120); test: ITC; 25 °C, VP-ITC; peptides 0.31 mM titrated into 0.018 mM LC3B proteins in 25 steps; 40 mM Na2HPO4, 80 mM NaCl, pH 7.0; one-site binding model
[2] = biological target: T1, LC3B wild type (for ITC and NMR) (human, UniProt Q9GZQ8 1-120); test: ITC; rows marked WT*: previous set of conditions reported by Novak et al.: 50 mM NaPi, 150 mM NaCl, pH 7.5
[3] = biological target: T1, LC3B wild type (for ITC and NMR); test: ITC; 25 °C, VP-ITC; peptides 0.31 mM titrated into 0.018 mM LC3B proteins in 25 steps; 40 mM Na2HPO4, 80 mM NaCl, pH 7.0; one-site binding model; remark: listed apart in the source
[4] = biological target: LC3B R11A (for ITC) (human, UniProt Q9GZQ8 1-120, R11A); test: as above
[5] = biological target: LC3B K49A (for ITC) (human, UniProt Q9GZQ8 1-120, K49A); test: as above
[6] = biological target: LC3B K51A (for ITC) (human, UniProt Q9GZQ8 1-120, K51A); test: as above

- Kd [1]: 99 µM
B1: Nix LIR P0 peptide (unphosphorylated) (peptide)
peptide: AGLNSSWVELPMNSSNG
notes: Nix LIR motif peptide without phosphorylation of Ser34 and Ser35; also called non-phosphorylated P0 peptide; source: synthetic peptide, bought: GenScript USA Inc, 95% pure

- Ka [2]: 680000 M⁻¹
- Kd [2]: 1.47 µM
- dH [2]: -10.5 ± 0.13 kcal/mol
- stoichiometry N [2]: 0.99 ± 0.01
- Ka [3]: 498000 M⁻¹
- Kd [3]: 2.01 µM
- dH [3]: -9.38 ± 0.17 kcal/mol
- stoichiometry N [3]: 1.04 ± 0.01
- Ka [4]: 233000 M⁻¹
- Kd [4]: 4.29 µM
- dH [4]: -8.22 ± 0.23 kcal/mol
- stoichiometry N [4]: 1.06 ± 0.02
- Ka [5]: 1.02e+06 M⁻¹
- Kd [5]: 0.98 µM
- dH [5]: -10.84 ± 0.01 kcal/mol
- stoichiometry N [5]: 0.99 ± 0.01
- Ka [6]: 34000 M⁻¹
- Kd [6]: 29 µM
- dH [6]: -4.7 ± 0.01 kcal/mol
B2: p62 LIR peptide (peptide)
chain: RPEEQMESDNCSGGDDDWTHLS
